# Measurements reported in patent publication US20140056918A1 (Novo Nordisk, published 2014).
# T1: Human OSCAR (osteoclast-associated receptor), full length, on cells (human)
# T1 chain: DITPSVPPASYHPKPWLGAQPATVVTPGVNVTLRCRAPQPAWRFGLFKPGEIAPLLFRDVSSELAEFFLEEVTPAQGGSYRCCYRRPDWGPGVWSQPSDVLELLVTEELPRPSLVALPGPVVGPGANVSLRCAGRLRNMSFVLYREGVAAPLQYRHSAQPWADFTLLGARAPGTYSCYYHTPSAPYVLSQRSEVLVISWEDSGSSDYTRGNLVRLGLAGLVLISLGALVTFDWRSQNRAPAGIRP
# T2: Human OSCAR-S1a (naturally occurring soluble isoform) (human, UniProt Q8IYS5 19-282)
# T2 construct: Recombinant soluble isoform used as SPR analyte; also called OSCAR 1Sa
# T2 sequence: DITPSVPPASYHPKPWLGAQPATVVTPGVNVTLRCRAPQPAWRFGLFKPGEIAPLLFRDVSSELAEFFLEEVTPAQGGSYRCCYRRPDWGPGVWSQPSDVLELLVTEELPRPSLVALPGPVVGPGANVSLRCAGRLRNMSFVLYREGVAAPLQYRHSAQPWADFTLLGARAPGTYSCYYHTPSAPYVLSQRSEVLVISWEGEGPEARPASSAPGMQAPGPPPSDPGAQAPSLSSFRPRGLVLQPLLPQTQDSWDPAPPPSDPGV
# B1: Human OSCAR-ECD (recombinant extracellular domain of human OSCAR) (receptor)
# chain: DITPSVPPASYHPKPWLGAQPATVVTPGVNVTLRCRAPQPAWRFGLFKPGEIAPLLFRDVSSELAEFFLEEVTPAQGGSYRCCYRRPDWGPGVWSQPSDVLELLVTEELPRPSLVALPGPVVGPGANVSLRCAGRLRNMSFVLYREGVAAPLQYRHSAQPWADFTLLGARAPGTYSCYYHTPSAPYVLSQRSEVLVISWEDSGSSDYTR
# notes: also called OSACAR-ECD
# B2: 13F5A5 (antibody, V domains shown)
# VH: EVQLVQSGAEVKKPGESLKISCKGSGYSFTSYWIVWVRQMPGKGLEWMGSIYPGDSDARYSPSFQGQVTISADKSISTAYLQWSSLKASDTAMYYCARQKITMVRGVIITPLDGMDVWGQGTTVTVSS
# VL: not shown
# notes: Fully human anti-OSCAR mAb from HuMab mice; also called 13F5A5 (Hu)
# B3: 3F7A9 (antibody, V domains shown)
# VH: EIQLQQSGPELVKPGASVKVSCKASGYVFTSYNMYWVKQSHGKSLEWIGYIDPYNGGTRYNQKFKGKATLTVDKSSSTAYMHLNSLTSEDSAVYYCARLDYYGNFYWGQGTTLTVSS
# VL: DIKMTQSPSSMYASLGERVTITCKASQDINSFLSWLQQKPGKSPKTLIYRANRLVDGVPSRFSGSGSGQDYSLTISSLEYEDMGIYYCLQYDDFPYTFGGGTKLEIKR
# notes: Mouse anti-human OSCAR mAb (its isotype control is mIgG1); The heavy chain entry covers only VH-CH1 and the start of the hinge; also called 3F7A9-1
# Legend:
# [1] = target: T3, Human collagen I (Sigma, #C5483) (human, UniProt P02452 162-1218; P08123 80-1119); assay: SPR
# T3 construct: Bought collagen preparation, immobilised by amine coupling or coated on plates; also called ColI; colI
# [2] = target: T1, Human OSCAR (osteoclast-associated …); assay: cell-based or functional assay
# [3] = target: T1, Human OSCAR (osteoclast-associated …); assay: flow cytometry on primary human monocytes, donor #1
# Procedure: (§1) Cell number and viability were determined using a Cedex cell counter. The cells were diluted in washing buffer (1×PBS (—Ca²⁺/—Mg²⁺)+5% FBS+0.1% Na-azide) to […]. In the case of monocytes, the cells were further blocked by adding 10 μl of a hFcR blocker (Miltenyi, #130-059-901) and incubated for 10 minutes at 4° C. 50 μl of cells (50.000 cells/well) were seeded into 96 well round-bottomed microtiter plates. Hybridoma supernatants or purified antibodies (in serial dilutions) were added to the cells at 50 μl/well. The isotype-matched purified irrelevant human mAb or mouse mAb served as negative controls (mouse IgG1, BD, #553452; mouse IgG2a, BD, #557353; mouse IgG2b, BD, #557352). […] Cells were washed in PBS, re-suspended in fixation buffer (1×PBS (—Ca²⁺/—Mg²⁺), pH7.2+1% formalin (B&B, #LAB96751.0500) and analysed by FACS flow cytometer. EC₅₀ values were calculated using a GraphPad Prism 5 software.
# [4] = target: T1, Human OSCAR (osteoclast-associated …); assay: flow cytometry on primary human monocytes, donor #2
# Procedure: as §1
# [5] = target: B1; assay: SPR competition, 50 nM OSCAR-ECD premixed with mAb, over immobilised collagen I
# Procedure: (§2) The experiment was performed using a Biacore T 100 instrument (GE Healthcare). Human collagen 1 (Sigma, # C5483) and human collagen 2 (Millipore #CC052) were diluted with 10 mM NaOAc, pH 4.5 and immobilized on a Biacore CM3 sensor chip (GE Healthcare) using amine coupling chemistry (GE Healthcare). Immobilization was performed according to the standard procedure, but at 5° C. in order to prevent aggregation collagens, with immobilized levels of ca 250 RU on flow cells (FC) 2 and 4. A blank immobilization was performed on FC 1 & 3, which were used as reference cells. HBS-EP buffer (10 mM HEPES, 150 mM NaCl, 3 mM EDTA, 0.05% Polysorbat P20, pH7.4) was used as running buffer for the immobilization. Buffer containing HBS-EP/+0.1% BSA was used for the competition assay. The competition experiment was performed at 5° C. at a flow rate of 50 μl/min. […] OSCAR was mixed with various concentrations of anti-OSCAR antibodies ranging from 0-10 μg/ml prior to injection. Binding curves were measured for 360 s followed by 240 s of dissociation. The chip surface was regenerated for 2×20 s with 10 mM glycine, pH 2.0 between assays.
# (§3) Human collagen I and II were immobilized to the surface of a Biacore sensor chip by amine coupling. […] It was hypothesized that an antibody inhibiting binding of OSCAR to collagen would lead to a concentration-dependent loss of signal, whereas a non-inhibiting antibody would enhance the signal due to the increased mass of the OSCAR-antibody complex.
# [6] = target: B1; assay: SPR (Biacore T100), mAb coupled or captured on chip, OSCAR-ECD injected, 1:1 fit
# Procedure: The kinetic parameters (kₐ, kd and KD) for the interaction were calculated using a 1:1 interaction Langmuir fitting model.
# [7] = target: B1; assay: SPR competition, 50 nM OSCAR-ECD premixed with mAb, over immobilised collagen II; parameters: unit not given here
# Procedure: as §2, §3
# [8] = target: B1; assay: SPR competition, 50 nM OSCAR-ECD premixed with mAb, over ColI immobilised at ca 150 RU
# Procedure: (§4) The experiment was performed using a Biacore T 100 instrument (GE Healthcare). Human ColI (Sigma, # C5483) was diluted with 10 mM NaOAc, pH 4.5 to 10 μg/ml and immobilized on a Biacore CM3 sensor chip (GE Healthcare) using amine coupling chemistry (GE Healthcare). Immobilization was performed according to the standard procedure, but at 4° C. in order to prevent aggregation of ColI, with immobilized levels of ca 150 RU on flow cell (FC) 2 and ca 300 RU on FC 4. A blank immobilization was performed on FC 1 & 3, which were used as reference cells. HBS-EP buffer (10 mM HEPES, 150 mM NaCl, 3 mM EDTA, 0.005% Polysorbat P20, pH7.4) was used as running buffer for the immobilization. Buffer containing HBS-EP/+0.1% BSA was used for the competition assay.
# (§5) The competition experiment was performed at 4° C. at a flow rate of 50 μl/min. […] OSCAR was mixed with various concentrations of anti-OSCAR antibodies ranging from 0-5 μg/ml prior to injection. Binding curves were measured for 240 s followed by 200 s of dissociation. The chip surface was regenerated for 2×20 s with 10 mM glycine, pH 2.0 between assays. All assays were performed in duplicates.
# (§6) Human ColI was immobilized to the surface of a Biacore sensor chip by amine coupling.
# [9] = target: B1; assay: SPR competition, 50 nM OSCAR-ECD premixed with mAb, over ColI immobilised at ca 300 RU
# Procedure: as §4, §5, §6
# [10] = target: T2, Human OSCAR-S1a (naturally occurring …); assay: SPR competition, 50 nM OSCAR-S1a premixed with mAb, over ColI immobilised at ca 150 RU
# Procedure: as §4, §5, §6
# [11] = target: T2, Human OSCAR-S1a (naturally occurring …); assay: SPR competition, 50 nM OSCAR-S1a premixed with mAb, over ColI immobilised at ca 300 RU
# Procedure: as §4, §5, §6
# T3 sequence (P02452 162-1218, chain 1 of 2): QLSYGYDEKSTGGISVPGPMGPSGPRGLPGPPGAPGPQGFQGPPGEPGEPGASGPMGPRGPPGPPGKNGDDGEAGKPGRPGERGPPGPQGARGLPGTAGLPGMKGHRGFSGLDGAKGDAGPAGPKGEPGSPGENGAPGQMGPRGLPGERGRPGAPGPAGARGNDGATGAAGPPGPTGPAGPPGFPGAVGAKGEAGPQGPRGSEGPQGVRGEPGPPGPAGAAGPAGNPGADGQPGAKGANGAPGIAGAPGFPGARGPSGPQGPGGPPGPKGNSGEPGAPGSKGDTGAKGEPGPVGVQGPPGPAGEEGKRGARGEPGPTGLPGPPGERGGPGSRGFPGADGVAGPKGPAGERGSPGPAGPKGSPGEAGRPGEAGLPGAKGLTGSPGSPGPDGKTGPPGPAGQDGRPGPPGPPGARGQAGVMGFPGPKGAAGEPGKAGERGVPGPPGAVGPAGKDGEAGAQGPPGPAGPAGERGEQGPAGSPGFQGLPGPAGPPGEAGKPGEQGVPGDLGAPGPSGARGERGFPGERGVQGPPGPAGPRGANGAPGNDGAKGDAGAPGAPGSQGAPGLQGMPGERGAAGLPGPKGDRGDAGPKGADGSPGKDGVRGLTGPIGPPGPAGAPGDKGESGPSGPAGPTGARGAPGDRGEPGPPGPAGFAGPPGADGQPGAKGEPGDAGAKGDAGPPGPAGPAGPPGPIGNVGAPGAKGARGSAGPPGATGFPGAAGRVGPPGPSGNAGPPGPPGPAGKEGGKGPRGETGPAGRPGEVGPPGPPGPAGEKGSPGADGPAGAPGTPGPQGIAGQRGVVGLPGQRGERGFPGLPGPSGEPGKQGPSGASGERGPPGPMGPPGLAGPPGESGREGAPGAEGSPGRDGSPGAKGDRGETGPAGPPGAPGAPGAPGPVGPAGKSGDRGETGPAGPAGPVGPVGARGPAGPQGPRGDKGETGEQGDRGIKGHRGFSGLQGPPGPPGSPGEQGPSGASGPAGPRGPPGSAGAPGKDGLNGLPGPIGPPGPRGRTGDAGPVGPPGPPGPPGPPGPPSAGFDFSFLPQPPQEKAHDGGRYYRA
# T3 sequence (P08123 80-1119, chain 2 of 2): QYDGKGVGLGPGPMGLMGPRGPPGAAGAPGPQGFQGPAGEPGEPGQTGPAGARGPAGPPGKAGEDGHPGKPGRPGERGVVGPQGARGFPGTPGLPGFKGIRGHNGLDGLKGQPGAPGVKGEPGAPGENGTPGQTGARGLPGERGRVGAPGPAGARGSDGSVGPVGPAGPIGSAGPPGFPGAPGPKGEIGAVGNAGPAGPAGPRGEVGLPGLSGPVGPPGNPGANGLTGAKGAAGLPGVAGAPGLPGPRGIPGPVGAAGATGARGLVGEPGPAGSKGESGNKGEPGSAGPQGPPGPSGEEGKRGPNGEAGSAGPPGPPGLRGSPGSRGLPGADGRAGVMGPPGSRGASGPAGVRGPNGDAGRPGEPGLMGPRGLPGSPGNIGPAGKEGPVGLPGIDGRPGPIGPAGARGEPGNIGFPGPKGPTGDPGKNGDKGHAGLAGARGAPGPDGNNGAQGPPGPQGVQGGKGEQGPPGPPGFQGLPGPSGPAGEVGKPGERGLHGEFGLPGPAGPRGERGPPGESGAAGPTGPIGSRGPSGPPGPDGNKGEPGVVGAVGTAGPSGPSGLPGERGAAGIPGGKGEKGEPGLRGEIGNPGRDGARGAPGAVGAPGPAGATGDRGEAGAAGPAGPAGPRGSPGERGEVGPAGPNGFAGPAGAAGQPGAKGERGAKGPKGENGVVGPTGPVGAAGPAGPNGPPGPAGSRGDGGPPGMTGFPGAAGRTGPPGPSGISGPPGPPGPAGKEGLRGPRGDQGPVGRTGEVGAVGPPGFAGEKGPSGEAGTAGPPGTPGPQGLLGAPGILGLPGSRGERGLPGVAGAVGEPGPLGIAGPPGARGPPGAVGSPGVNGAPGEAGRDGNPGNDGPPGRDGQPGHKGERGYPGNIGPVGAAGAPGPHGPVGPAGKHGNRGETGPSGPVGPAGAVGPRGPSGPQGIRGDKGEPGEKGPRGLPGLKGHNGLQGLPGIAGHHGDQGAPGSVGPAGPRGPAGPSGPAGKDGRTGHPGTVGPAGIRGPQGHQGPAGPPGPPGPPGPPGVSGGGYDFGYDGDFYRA
Kd [1],"IC50 (IL-8), ColI-induced IL-8 release from moDC, Donor 1 [2]","IC50 (IL-8), ColI-induced IL-8 release from moDC, Donor 4 [2]","IC50 (IL-8), ColI-induced IL-8 release from moDC, Donor 5 [2]","IC50 (IL-8), ColI-induced IL-8 release from moDC, Donor 6 [2]",EC50 [3],EC50 [4],binding of OSCAR-ECD to collagen I with 10 µg/mL mAb [5],Kd [6],binding of OSCAR-ECD to collagen II with 10 µg/mL mAb [7],Binding [RU] of OSCAR to ColI with 5 µg mAb [8],Binding [RU] of OSCAR to ColI with 5 µg mAb [9],Binding [RU] of OSCAR to ColI with 5 µg mAb [10],Binding [RU] of OSCAR to ColI with 5 µg mAb [11],"IC50 (IL-8), ColI-induced IL-8 release from moDC, Donor 2 [2]","IC50 (IL-8), ColI-induced IL-8 release from moDC, Donor 3 [2]",Binder
255 nM,–,–,–,–,–,–,–,–,–,–,–,–,–,–,–,B1
–,2 nM,< 0.01 nM,0.23 nM,0.06 nM,4.02 nM,2.18 nM,-1.4,0.7 nM,1.3,1.4 RU,5.1 RU,-0.2 RU,2 RU,–,–,B2
–,0.16 nM,0.06 nM,0.05 nM,0.1 nM,1.79 nM,0.14 nM,132,9.1 nM,246,82.5 RU,130 RU,58.9 RU,92.6 RU,0.06 nM,0.41 nM,B3
